From article PMC7794242, “Cryo-EM analysis of the HCoV-229E spike glycoprotein reveals dynamic prefusion conformational changes” (Nature Communications, 2021)

Legend:
[1] = target: T1, HCoV-229E S glycoprotein wild-type soluble ectodomain (residues 1-1116) with C-terminal GCN4 trimerization … (HCoV-229E, UniProt P15423 16-1116); assay: SPR; OpenSPR; hAPN immobilised on COOH sensor chip; S trimer peak 2 sample injected at 0, 6.25, 12.5, 25 and 50 nM; HBS-EP+ buffer; 298 K; one-to-one binding model; conditions: both partners purified
[2] = target: T1, HCoV-229E S glycoprotein wild-type …; assay: SPR; OpenSPR; hAPN immobilised on COOH sensor chip; S trimer peak 3 sample injected at 0, 3.13, 6.25, 12.5 and 25 nM; HBS-EP+ buffer; 298 K; one-to-one binding model; conditions: both partners purified

B1: human aminopeptidase N (receptor)
chain: DQSKAWNRYRLPNTLKPDSYRVTLRPYLTPNDRGLYVFKGSSTVRFTCKEATDVIIIHSKKLNYTLSQGHRVVLRGVGGSQPPDIDKTELVEPTEYLVVHLKGSLVKDSQYEMDSEFEGELADDLAGFYRSEYMEGNVRKVVATTQMQAADARKSFPCFDEPAMKAEFNITLIHPKDLTALSNMLPKGPSTPLPEDPNWNVTEFHTTPKMSTYLLAFIVSEFDYVEKQASNGVLIRIWARPSAIAAGHGDYALNVTGPILNFFAGHYDTPYPLPKSDQIGLPDFNAGAMENWGLVTYRENSLLFDPLSSSSSNKERVVTVIAHELAHQWFGNLVTIEWWNDLWLNEGFASYVEYLGADYAEPTWNLKDLMVLNDVYRVMAVDALASSHPLSTPASEINTPAQISELFDAISYSKGASVLRMLSSFLSEDVFKQGLASYLHTFAYQNTIYLNLWDHLQEAVNNRSIQLPTTVRDIMNRWTLQMGFPVITVDTSTGTLSQEHFLLDPDSNVTRPSEFNYVWIVPITSIRDGRQQQDYWLIDVRAQNDLFSTSGNEWVLLNLNVTGYYRVNYDEENWRKIQTQLQRDHSAIPVINRAQIINDAFNLASAHKVPVTLALNNTLFLIEERQYMPWEAALSSLSYFKLMFDRSEVYGPMKNYLKKQVTPLFIHFRNNTNNWREIPENLMDQYSEVNAISTACSNGVPECEEMVSGLFKQWMENPNNNPIHPNLRSTVYCNAIAQGGEEEWDFAWEQFRNATLVNEADKLRAALACSKELWILNRYLSYTLNPDLIRKQDATSTIISITNNVIGQGLVWDFVQSNWKKLFNDYGGGSFSFSNLIQAVTRRFSTEYELQQLEQFKKDNEETGFGSGTRALEQALEKTKANIKWVKENKEVVLQWFTENSK
Kd [1]: 36.3 nM | koff [1]: 0.00115 s⁻¹ | kon [1]: 31800 M⁻¹ s⁻¹ | Kd [2]: 6.78 nM | koff [2]: 0.000485 s⁻¹ | kon [2]: 71500 M⁻¹ s⁻¹
